The target of assay [1] is A. baumannii RibBX (3,4-dihydroxy-2-butanone 4-phosphate synthase (DHBPS; RibB) fusion protein) (Acinetobacter baumannii ATCC 17978). Nature of the assay: crystal structure.
The target is the same in assay [2]. Description: SEC. (In general: Size exclusion chromatography separates by hydrodynamic size, large species first.)
In assay [3] the target is T1, RibBX (Acinetobacter baumannii, UniProt V5V8R9).
T1 sequence (V5V8R9 1-373): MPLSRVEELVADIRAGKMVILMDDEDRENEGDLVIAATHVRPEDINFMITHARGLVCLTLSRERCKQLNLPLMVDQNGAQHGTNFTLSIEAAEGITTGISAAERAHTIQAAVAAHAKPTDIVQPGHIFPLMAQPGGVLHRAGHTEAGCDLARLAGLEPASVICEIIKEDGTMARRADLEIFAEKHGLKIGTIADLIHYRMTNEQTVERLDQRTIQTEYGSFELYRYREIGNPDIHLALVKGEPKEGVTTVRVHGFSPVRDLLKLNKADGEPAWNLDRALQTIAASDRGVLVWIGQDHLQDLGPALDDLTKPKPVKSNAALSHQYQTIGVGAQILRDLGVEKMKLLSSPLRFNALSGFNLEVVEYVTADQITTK
Nature of the assay: colorimetric DHBPS assay. Type of assay: biochemical.

Assay [4] concerns the target T1, RibBX. Nature of the assay: isothermal titration calorimetry. The format is binding.

Turning to “A. baumannii RibBX (3,4-dihydroxy-2-butanone 4-phosphate synthase (DHBPS; RibB) fusion protein) (enzyme)”, the values for the stoichiometry N in assay [1] and in assay [2] were 4 and 2, respectively.
The compound `Cc1cc2nc3c(=O)[nH]c(=O)nc-3n(C[C@H](O)[C@H](O)[C@H](O)COP(=O)(O)O)c2cc1C` [FMN] had an inhibition constant Ki on RibBX [3] of 7.8 µM. On RibBX [4], this compound gave a Kd of 0.714 µM.

Broadly, the stoichiometry N is a count of units in the complex or per binding partner. By Ki is commonly meant the equilibrium dissociation constant of an inhibitor or competing ligand from its target. Low values mean higher affinity, high ones lower affinity. As a reminder, the Kd is the equilibrium constant for the complex coming apart. Low values mean a tighter complex, high ones a looser complex.

Source of the values: article PMC6525019 (Cell chemical biology, 2019).
